The values below come from patent publication US20140223606, “COMPOSITIONS AND METHODS COMPRISING SEQUENCES HAVING MEGANUCLEASE ACTIVITY” (PIONEER HI BRED INTERNATIONAL INC, published 2014).

Where a chain is given by its changes, count along the chain named.

Holding throughout (conditions): tags: NLS, 6xHis
The target in data set [1] is T1, LIG3-4(B24) (artificial).
T1 chain: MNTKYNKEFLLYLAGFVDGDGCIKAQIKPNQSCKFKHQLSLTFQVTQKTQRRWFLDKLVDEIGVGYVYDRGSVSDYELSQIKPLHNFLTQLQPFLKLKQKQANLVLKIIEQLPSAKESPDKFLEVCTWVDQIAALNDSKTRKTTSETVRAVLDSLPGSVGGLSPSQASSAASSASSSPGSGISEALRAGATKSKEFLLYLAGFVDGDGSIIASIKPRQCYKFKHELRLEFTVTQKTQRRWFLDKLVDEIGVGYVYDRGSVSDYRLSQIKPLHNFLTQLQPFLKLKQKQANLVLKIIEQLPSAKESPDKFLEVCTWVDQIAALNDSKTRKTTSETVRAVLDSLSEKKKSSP
Kind of data set: cell_activity; yeast 30 C; 22 C: 0. How it is done: (§1) A 3 mL culture of selective media (MP Biomedical) was inoculated with a single colony of the yeast screening strain and grown at 30° C. overnight. On the following day, a 50 ml YPD culture (MP Biomedical) was started with 2 ml of the overnight culture and grown at 30° C. overnight. On the following day, the cells were harvested by centrifugation at 4000 rpm. The cells were resuspended in 100 ml ice cold water and centrifuged again. The cells were then washed in 1.2 M sorbitol, followed by treatment with 2 ml of 10 mM Tris pH 8.0, 1 mM EDTA, 100 mM Lithium acetate, 10 mM DTT, 0.6M sorbitol for 30 minutes at 30° C. with shaking. The cells were recovered by centrifugation, washed in 40 ml 1.2M sorbitol and finally resuspended in 250 microliters of 1.2M sorbitol. 50 microliter aliquots were transferred to test tubes on ice. Up to 5 microliters of DNA (100-500 nanograms) were added. The suspension was transferred to a 0.2 cm electroporation cuvette, on ice. Electroporation was performed with a pulse charge at 1.5 kV, 200 ohms, 25 microF (pulse time of 5 milliseconds). 1 mL YPD media (MP Biomedical) was added and the cells were allowed to recover at 30° C. for 1-2 hr. The cells were centrifuged, resuspended in 100 uL 1M sorbitol and plated on selective media lacking leucine and containing 2% galactose. The resulting yeast colonies were incubated at various temperatures ranging from 22 to 37 degrees Celsius for 7-10 days. I-CreI and meganucleases derived from it have maximal activity at or above 37 degrees Celsius. Screening was performed at a range of temperatures from 22 to 37 degrees in order to observe increases in activity at lower temperatures which are relevant to certain biological systems (eg. plant cells, plant cell cultures, etc). At that time the red/white sectoring phenotype, indicative of meganuclease activity was observed. Colonies with increased white sectoring over the parental meganuclease (indicating colonies expressing a meganuclease with increased meganuclease activity), also referred to as “hits” and sometimes completely white, were isolated for further analysis.

Data set [2] concerns the target T2, LIG3-4(B36) (artificial).
T2 chain: T1 chain with C22S, G71K, G258K
Kind of data set: cell_activity; yeast 30 C; 22 C: 0. As for the experimental part:
as §1

The target of data set [3] is T3, ZM6.22v2(J4) (artificial).
T3 chain: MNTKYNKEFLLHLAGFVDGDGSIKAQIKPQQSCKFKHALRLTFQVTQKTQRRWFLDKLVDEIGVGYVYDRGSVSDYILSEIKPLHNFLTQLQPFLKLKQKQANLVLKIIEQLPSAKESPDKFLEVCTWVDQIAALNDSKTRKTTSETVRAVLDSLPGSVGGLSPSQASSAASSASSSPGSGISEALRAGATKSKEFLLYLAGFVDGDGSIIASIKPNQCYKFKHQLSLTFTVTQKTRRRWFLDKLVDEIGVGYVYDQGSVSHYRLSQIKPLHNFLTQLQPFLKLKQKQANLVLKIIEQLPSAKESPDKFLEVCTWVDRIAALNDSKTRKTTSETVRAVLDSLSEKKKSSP
Kind of data set: cell_activity; yeast 37 C; 30 C: 0.5. As for the experimental part: as §1
(§2) A total of 13 ZM6.22v2 variants with increased activity were confirmed in the yeast system (as described in Example 6). Increased activity was observed across a range of temperatures: 28 degrees Celsius, 30 degrees Celsius and 37 degrees Celsius, as shown in Table 16.

Data set [4] concerns the target T4, ZM6.22v2(J3) (artificial).
T4 chain: T3 chain with H12Y, Q50R, D56L, Q131R, E311R, V316A
In words: cell_activity; yeast 37 C; 30 C: 0.5. As for the experimental part: as §1, §2

Data set [5] concerns the target T5, ZM6.22v2(J5) (artificial).
T5 chain: T3 chain with V105A, E124R, D153L, R237Q, E311R, R318Q
Kind of data set: cell_activity; yeast 37 C; 30 C: 0.5. How it is done: as §1, §2

B1: LIG3-4 recognition site (dsDNA)
DNA 1: ATATACCTCACACGTACGCGTA
DNA 2: TACGCGTACGTGTGAGGTATAT
On to B1, for which the activity in data set [1] and in data set [2] was 4 score 0-4 throughout.

B2: ZM6.22v2 recognition site (dsDNA)
DNA 1: ATTGCTCTCTCACATACTTTTA
DNA 2: TAAAAGTATGTGAGAGAGCAAT
As to B2, the results for the activity in data set [3], in data set [4] and in data set [5] were 3.5 score 0-4, 3 score 0-4 and 4 score 0-4, respectively.
